Literature values as cited in publication PMC8886532.

Molecular target: kinetochore receptor (KNL1) (Homo sapiens) (UniProt Q8NG31)
UniProt Q8NG31, sequence (Q8NG31 whole entry): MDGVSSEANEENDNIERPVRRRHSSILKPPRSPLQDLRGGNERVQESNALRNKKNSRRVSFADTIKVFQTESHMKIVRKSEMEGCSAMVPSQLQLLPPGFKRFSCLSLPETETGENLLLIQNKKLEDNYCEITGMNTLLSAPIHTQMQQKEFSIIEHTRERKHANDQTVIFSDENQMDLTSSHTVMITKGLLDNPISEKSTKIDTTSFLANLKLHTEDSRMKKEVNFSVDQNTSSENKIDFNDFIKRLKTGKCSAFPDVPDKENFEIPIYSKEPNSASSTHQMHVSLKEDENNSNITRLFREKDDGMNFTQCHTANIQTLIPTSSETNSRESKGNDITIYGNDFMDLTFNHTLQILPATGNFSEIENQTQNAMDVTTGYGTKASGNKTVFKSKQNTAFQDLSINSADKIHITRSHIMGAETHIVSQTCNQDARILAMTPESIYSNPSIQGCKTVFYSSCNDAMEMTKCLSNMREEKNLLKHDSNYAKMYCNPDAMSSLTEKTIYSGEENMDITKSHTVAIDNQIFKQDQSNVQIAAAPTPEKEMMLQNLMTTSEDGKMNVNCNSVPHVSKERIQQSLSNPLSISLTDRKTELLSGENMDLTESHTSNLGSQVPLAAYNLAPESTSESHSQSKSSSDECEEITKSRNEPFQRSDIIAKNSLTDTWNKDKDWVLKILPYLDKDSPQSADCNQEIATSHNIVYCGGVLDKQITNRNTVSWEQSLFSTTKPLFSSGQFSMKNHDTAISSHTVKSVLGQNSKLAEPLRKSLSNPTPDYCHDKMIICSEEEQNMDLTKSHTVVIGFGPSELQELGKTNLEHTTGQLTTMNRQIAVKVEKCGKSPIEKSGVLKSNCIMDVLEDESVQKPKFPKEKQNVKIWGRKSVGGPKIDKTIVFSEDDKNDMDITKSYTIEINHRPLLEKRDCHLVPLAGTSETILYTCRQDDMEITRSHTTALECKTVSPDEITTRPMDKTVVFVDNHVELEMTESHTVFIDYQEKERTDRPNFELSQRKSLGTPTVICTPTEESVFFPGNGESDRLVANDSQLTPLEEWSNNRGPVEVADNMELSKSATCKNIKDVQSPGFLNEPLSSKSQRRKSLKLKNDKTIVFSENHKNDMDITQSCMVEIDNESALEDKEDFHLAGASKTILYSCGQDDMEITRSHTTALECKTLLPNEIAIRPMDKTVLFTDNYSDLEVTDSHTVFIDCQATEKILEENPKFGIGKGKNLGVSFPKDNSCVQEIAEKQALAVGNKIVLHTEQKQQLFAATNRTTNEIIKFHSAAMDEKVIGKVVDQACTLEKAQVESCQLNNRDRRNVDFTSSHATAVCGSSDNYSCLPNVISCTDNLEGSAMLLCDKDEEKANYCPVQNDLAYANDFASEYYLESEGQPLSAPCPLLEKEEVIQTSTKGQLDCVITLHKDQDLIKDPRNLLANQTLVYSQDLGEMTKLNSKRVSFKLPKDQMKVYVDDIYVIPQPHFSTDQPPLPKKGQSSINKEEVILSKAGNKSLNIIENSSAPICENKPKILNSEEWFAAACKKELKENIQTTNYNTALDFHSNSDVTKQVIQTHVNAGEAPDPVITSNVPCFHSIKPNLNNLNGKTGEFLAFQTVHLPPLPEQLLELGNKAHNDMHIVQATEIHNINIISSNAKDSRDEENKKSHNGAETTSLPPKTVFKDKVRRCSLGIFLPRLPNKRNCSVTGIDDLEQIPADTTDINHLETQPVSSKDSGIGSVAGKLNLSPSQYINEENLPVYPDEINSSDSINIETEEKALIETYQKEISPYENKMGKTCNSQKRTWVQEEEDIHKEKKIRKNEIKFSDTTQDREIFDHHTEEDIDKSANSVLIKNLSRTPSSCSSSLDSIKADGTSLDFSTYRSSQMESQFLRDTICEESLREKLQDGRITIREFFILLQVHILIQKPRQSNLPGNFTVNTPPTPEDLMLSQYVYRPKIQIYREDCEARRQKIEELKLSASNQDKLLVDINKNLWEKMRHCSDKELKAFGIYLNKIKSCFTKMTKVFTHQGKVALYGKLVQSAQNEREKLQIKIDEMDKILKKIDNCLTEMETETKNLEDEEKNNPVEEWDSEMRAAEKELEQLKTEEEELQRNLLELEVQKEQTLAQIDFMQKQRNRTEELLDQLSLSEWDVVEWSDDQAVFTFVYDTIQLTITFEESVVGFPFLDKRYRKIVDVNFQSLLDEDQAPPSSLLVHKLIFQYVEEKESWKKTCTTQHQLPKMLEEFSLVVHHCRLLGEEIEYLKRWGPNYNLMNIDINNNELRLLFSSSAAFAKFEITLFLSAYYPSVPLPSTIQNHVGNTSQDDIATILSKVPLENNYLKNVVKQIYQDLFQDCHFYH

For BUB1/BUB3 complex (from UniProt O43683), the Kd is listed as 100 nM.
